Data on 17 molecules can be found in publication PMC11417369, “DNA sequence and chromatin differentiate sequence-specific transcription factor binding in the human malaria parasite Plasmodium falciparum”.

The target in this series is T1, SIP2 D1 (Plasmodium falciparum, UniProt C6KSN9 177-235).
T1 sequence: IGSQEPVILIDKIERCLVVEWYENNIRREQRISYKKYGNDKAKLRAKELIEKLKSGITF
As to the kind of experiment: gcPBM; about 25 ug protein; PBS, 1% milk, 0.2 mg/ml BSA, salmon testes DNA, 0.03% Triton X-100. As to conditions: tags: N-terminal GST (pGEX-4T-1), kept; label: surface-attached array probe.

B1: GTGCAC_negctrl_site629 (dsDNA)
DNA 1: TTGTTTTCTTTTTCTTTTCTTTTTCTTTTTTCTTTT
DNA 2: AAAAGAAAAAAGAAAAAGAAAAGAAAAAGAAAACAA
For the molecule B1, the binding signal was 6.64 ln median PBM intensity, better of two orientations.

B2: GTGCAC_negctrl_site419 (dsDNA)
DNA 1: GAAGGAAAAGATACGATAAAATAAGATATTAATTTA
DNA 2: TAAATTAATATCTTATTTTATCGTATCTTTTCCTTC
Take B2: the binding signal is 6.61 ln median PBM intensity, better of two orientations.

B3: GTGCAC_negctrl_site471 (dsDNA)
DNA 1: GATTATCTATCGCTTGAATGAAATGAAATCATGCAA
DNA 2: TTGCATGATTTCATTTCATTCAAGCGATAGATAATC
For the molecule B3, the binding signal is 6.65 ln median PBM intensity, better of two orientations.

B4: GTGCAC_negctrl_site53 (dsDNA)
DNA 1: TGAAAAATTACAAAAATAATAAAATGAAATAATAAA
DNA 2: TTTATTATTTCATTTTATTATTTTTGTAATTTTTCA
Regarding B4, the binding signal was 6.68 ln median PBM intensity, better of two orientations.

B5: GTGCAC_negctrl_site373 (dsDNA)
DNA 1: AATAAATTAAATAAAAATGTTTAACATAAAATATGA
DNA 2: TCATATTTTATGTTAAACATTTTTATTTAATTTATT
Turning to B5, the binding signal is 6.67 ln median PBM intensity, better of two orientations.

B6: GTGCAC_negctrl_site453 (dsDNA)
DNA 1: AATAGGAAGACTATTTTGTATTTGATTTTTTATTCC
DNA 2: GGAATAAAAAATCAAATACAAAATAGTCTTCCTATT
Consider B6, for which the binding signal is 6.62 ln median PBM intensity, better of two orientations.

B7: GTGCAC_negctrl_site536 (dsDNA)
DNA 1: TGAAAAAATATAAAATATAAAATAAAAAATATAAAA
DNA 2: TTTTATATTTTTTATTTTATATTTTATATTTTTTCA
With B7, the binding signal is 6.67 ln median PBM intensity, better of two orientations.

B8: GTGCAC_negctrl_site410 (dsDNA)
DNA 1: TTATCTTAATTGTGATTATAAAGATATTCTTTCTAT
DNA 2: ATAGAAAGAATATCTTTATAATCACAATTAAGATAA
With B8, the binding signal was 6.56 ln median PBM intensity, better of two orientations.

B9: GTGCAC_negctrl_site386 (dsDNA)
DNA 1: AAGATAAACTTTTTTAATTAATTTAATTTTTTTTTT
DNA 2: AAAAAAAAAATTAAATTAATTAAAAAAGTTTATCTT
Regarding B9, the binding signal is 6.66 ln median PBM intensity, better of two orientations.

B10: GTGCAC_negctrl_site504 (dsDNA)
DNA 1: TTTCAAGGATTTAATTTATGGAAACCTTCTTCATTT
DNA 2: AAATGAAGAAGGTTTCCATAAATTAAATCCTTGAAA
Consider B10, for which the binding signal is 6.53 ln median PBM intensity, better of two orientations.

B11: GTGCAC_negctrl_site79 (dsDNA)
DNA 1: TTTTAAAAAAGAAAAAAAAAGGATCAGAGAAATATT
DNA 2: AATATTTCTCTGATCCTTTTTTTTTCTTTTTTAAAA
For the molecule B11, the binding signal was 6.69 ln median PBM intensity, better of two orientations.

B12: GTGCAC_negctrl_site176 (dsDNA)
DNA 1: TTTAATTAATAATAATATAAATTGTTCTTTTTTTTT
DNA 2: AAAAAAAAAGAACAATTTATATTATTATTAATTAAA
Turning to B12, the binding signal was 6.5 ln median PBM intensity, better of two orientations.

B13: GTGCAC_negctrl_site530 (dsDNA)
DNA 1: AATATATCAAAAATGATGACATAAATATATTAATTT
DNA 2: AAATTAATATATTTATGTCATCATTTTTGATATATT
Take B13: the binding signal is 6.58 ln median PBM intensity, better of two orientations.

B14: GTGCAC_negctrl_site525 (dsDNA)
DNA 1: TTTCTAAGAAAAAAAAAAAAAAAAAAAAAGATACAA
DNA 2: TTGTATCTTTTTTTTTTTTTTTTTTTTTCTTAGAAA
Regarding B14, the binding signal was 6.64 ln median PBM intensity, better of two orientations.

B15: GTGCAC_negctrl_site401 (dsDNA)
DNA 1: AAAAAAATTAAAAATAAAGAAAAAAAAAAAAAAAAA
DNA 2: TTTTTTTTTTTTTTTTTCTTTATTTTTAATTTTTTT
Regarding B15, the binding signal was 6.66 ln median PBM intensity, better of two orientations.

B16: GTGCAC_negctrl_site389 (dsDNA)
DNA 1: TATTATAAATTAATTTTAAACTTTATTATTATGATA
DNA 2: TATCATAATAATAAAGTTTAAAATTAATTTATAATA
In the case of B16, the binding signal is 6.7 ln median PBM intensity, better of two orientations.

B17: GTGCAC_negctrl_site205 (dsDNA)
DNA 1: TATAATTATTTTTTTCTAAATATTATAAGGTATTCA
DNA 2: TGAATACCTTATAATATTTAGAAAAAAATAATTATA
With B17, the binding signal was 6.55 ln median PBM intensity, better of two orientations.
